{
  "source": "paper PMC5070455",
  "about": "(Biophysics, 2012)",
  "proteins": {"B1": {"name": "desmin (natural protein, chicken, UniProt P02542 1-464, looked up)", "chain": "MSQSYSSSQRVSSYRRTFGGGTSPVFPRASFGSRGSGSSVTSRVYQVSRTSAVPTLSTFRTTRVTPLRTYQSAYQGAGELLDFSLADAMNQEFLQTRTNEKVELQELNDRFANYIEKVRFLEQQNALMVAEVNRLRGKEPTRVAEMYEEELRELRRQVDALTGQRARVEVERDNLLDDLQKLKQRLQEEIQLKEEAENNLAAFRADVDAATLARIDLERRIESLQEEIAFLKKVHEEEIRELQAQLQEQHIQVEMDISKPDLTAALRDIRAQYESIAAKNIAEAEEWYKSKVSDLTQAANKNNDALRQAKQEMLEYRHQIQSYTCEIDALKGTNDSLMRQMREMEERFAGEAGGYQDTIARLEEEIRHLKDEMARHLREYQDLLNVKMALDVEIATYRKLLEGEENRISIPMHQTFASALNFRETSPDQRGSEVHTKKTVMIKTIETRDGEVVSEATQQQHEVL"}},
  "target": "the molecule itself",
  "assay": "negative-stain electron microscopy",
  "data": [
    {"protein": "B1", "values": [
      {"measurement": "binding result", "value": "binds"}
    ]}
  ]
}
